Test results: paper PMC4287450, “PRDM9 Drives Evolutionary Erosion of Hotspots in Mus musculus through Haplotype-Specific Initiation of Meiotic Recombination”

B1: chr1_158 oligo 1 (dsDNA)
DNA 1: CGTCTGCTCTCTGTAGGAAGTGCTCCATGGACAGTAGCTTCTGCCTTTCCTT
DNA 2: AAGGAAAGGCAGAAGCTACTGTCCATGGAGCACTTCCTACAGAGAGCAGACG
B2: chr1_185 oligo 1 (dsDNA)
DNA 1: TCCCAGGACTATGAGTTTAGAGAGAAAAAAAACTAAAGTTACAGTAGCTTCATGTTG
DNA 2: CAACATGAAGCTACTGTAACTTTAGTTTTTTTTCTCTCTAAACTCATAGTCCTGGGA
B3: chr1_185 oligo 2 (dsDNA)
DNA 1: AGAGAGAAAAAAAACTAAAGTTACAGTAGCTTCATGTTGTAGATGGGTATATACCGCT
DNA 2: AGCGGTATATACCCATCTACAACATGAAGCTACTGTAACTTTAGTTTTTTTTCTCTCT

Biological target: PRDM9Dom2 (Mus musculus domesticus (B6 allele), UniProt Q96EQ9 513-843)
Sequence (Q96EQ9 513-843): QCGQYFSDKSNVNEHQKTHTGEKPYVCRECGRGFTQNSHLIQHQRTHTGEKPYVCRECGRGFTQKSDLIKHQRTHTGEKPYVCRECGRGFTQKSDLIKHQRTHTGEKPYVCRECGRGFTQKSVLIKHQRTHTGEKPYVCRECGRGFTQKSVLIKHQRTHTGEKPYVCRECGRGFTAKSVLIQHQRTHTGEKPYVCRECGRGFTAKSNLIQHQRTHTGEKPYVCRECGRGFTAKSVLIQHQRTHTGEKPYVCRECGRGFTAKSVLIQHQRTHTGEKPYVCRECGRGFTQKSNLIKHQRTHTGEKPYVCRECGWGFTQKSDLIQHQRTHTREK
Assay: competition; 20x unlabeled vs labeled CAST DNA; EMSA as in Billings et al. 2013 (buffer, pH, temperature not given); unlabeled competitor dsDNA at 20x labeled DNA
Conditions: protein: recombinant; blunt

Binding result, binds:
B1
B2
B3
